Patent US20220332804A1 (CSL INNOVATION, published 2022)
Substitutions are numbered along the chain they refer to.

How the values were obtained:
Assay in all cases: SPR, mAb captured, C2 mutant analyte;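 also: Anti-C2 mAbs captured on goat anti-human IgG Biacore CM5 chips, alanine or serine C2 surface mutants flowed over at 37 °C, double-referenced sensorgrams fitted to a 1:1 binding model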
human C2 E324A = molecular target: T1, human C2 E324A (human, UniProt P06681 21-752)
T1 sequence: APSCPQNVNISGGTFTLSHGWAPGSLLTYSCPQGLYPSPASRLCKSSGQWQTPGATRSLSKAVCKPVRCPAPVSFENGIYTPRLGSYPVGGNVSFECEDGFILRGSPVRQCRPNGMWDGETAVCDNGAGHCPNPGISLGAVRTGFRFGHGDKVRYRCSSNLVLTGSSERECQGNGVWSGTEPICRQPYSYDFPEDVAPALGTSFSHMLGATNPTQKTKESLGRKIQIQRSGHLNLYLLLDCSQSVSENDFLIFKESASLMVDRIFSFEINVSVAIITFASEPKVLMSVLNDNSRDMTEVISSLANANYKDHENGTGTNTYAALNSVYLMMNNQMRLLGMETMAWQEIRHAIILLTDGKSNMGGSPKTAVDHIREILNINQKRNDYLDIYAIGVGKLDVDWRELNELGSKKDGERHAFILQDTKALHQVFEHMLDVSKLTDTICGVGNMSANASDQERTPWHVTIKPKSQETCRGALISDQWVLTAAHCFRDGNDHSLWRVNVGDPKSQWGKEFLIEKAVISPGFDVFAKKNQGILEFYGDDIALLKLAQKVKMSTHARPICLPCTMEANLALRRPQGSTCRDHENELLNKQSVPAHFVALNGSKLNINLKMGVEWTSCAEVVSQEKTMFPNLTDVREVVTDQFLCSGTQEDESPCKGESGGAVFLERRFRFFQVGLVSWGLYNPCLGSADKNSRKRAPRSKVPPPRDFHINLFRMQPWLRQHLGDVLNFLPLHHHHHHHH
Description: (§1) Surface plasmon resonance (SPR, Biacore) was used for all binding affinity analyses. In brief, goat anti-human IgG was directly immobilised onto the carboxymethyl dextran surface of CM5 sensorchips to approximately 12,000 RU using standard NHS/EDC chemistry at pH 5. The immobilised antibody surface was pre-conditioned with ten injections of polyclonal human IgG (Privigen 60 s) prepared at 1 μg/mL. Ligands (anti-C2 mAbs) were captured at the beginning of each cycle as described below. An adjacent spot or flow cell in which only Polyclonal IgG was capture was used as a reference surface. The goat anti-human IgG Fc antibody surface was regenerate in 100 mM H3PO4, injected for 45 seconds at the end of each cycle. Experiments were performed at 37° C. and the flow rate of each experiment was kept constant at 30 μL/min.
(§2) Sensogram data was double-referenced against a reference anti-IgG surface (i.e. minus anti-C2 mAb) and blank buffer injections obtained within each experiment. The binding data was fit to 1:1 (kinetic or steady-state) model using local Rmax and null refraction index (RI=0) when appropriate. Buffers and solutions were filtered (0.22 μm) prior to use.

human C2 K329A = molecular target: T2, human C2 K329A (human, UniProt P06681 21-752)
T2 sequence: T1 sequence with A304E, K309A
Description: as §1, §2

human C2 H331A = molecular target: T3, human C2 H331A (human, UniProt P06681 21-752)
T3 sequence: T1 sequence with A304E, H311A
Description: as §1, §2

human C2 W420A = molecular target: T4, human C2 W420A (human, UniProt P06681 21-752)
T4 sequence: T1 sequence with A304E, W400A
Description: as §1, §2

- Kd (human C2 E324A): 27.8 nM
- Kd (human C2 K329A): 62.6 nM
- binding result (human C2 H331A): no binding
- Kd (human C2 W420A): 34.9 nM
B1: RF16-214 (antibody, V domains shown)
VH: EVQLLESGGGLVQPGGSLRLSCAASGFTFSWYQMMWVRQAPGKGLEWVSRIYPSGGGTAYADSVKGRFTISRDNSKNTLYLQMNSLRAEDTAVYYCARDAGYGDNWGQGTLVTVSS
VL: QSALTQPPSVSVSPGQTASITCSGDKLGEKYASWYQQKAGQSPVMVIYQDRKRPSGIPERFSGSNSGNTATLTISGTQAMDEADYYCQAWDTRAVVFGGGTKLTVLG
